Target: NUDT5 (Homo sapiens, UniProt Q9UKK9, dNUDT5 ternary complex, engineered CRBNmidi)
Test: proximity binding assay

- Kd: 0.34 nM
B1: CRBNmidi (protein)
chain: MAGEGDQQDAAHNMGNHLPLLPAESEEEDEMEVEDQDSKEAKKPNIINFDTSLPTSHTYLGADMEEFHGRTLHDDDSCQVIPVLPQVMMILIPGQTLPLQLFHPQEVSMVRNLIQKDRTFAVLAYSNVQEREAQFGTTAEIYAYREEQDFGIEIVKVKAIGRQRFKVLELRTQSDGIQQAKVQILPECVLPSTMSAVQLESLNKCQIFPSKPVSREDQCSYKWWQKYQKRKFHCANLTSWPRWLYSLYDAETLMDRIKKQLREWDENLKDDSLPSNPIDFSYRVAACLPIDDVLRIQLLKIGSAIQRLRCELDIMNKCTSLCCKQCQETEITTKNEIFSLSLCGPMAAYVNPHGYVHETLTVYKACNLNLIGRPSTEHSWFPGYAWTVAQCKICASHIGWKFTATKKDMSPQKFWGLTRSALLPTIPDTEDEISPDKVILCL

Source: paper PMC13462928 (2026)
